In article PMC9907809, “Conformational rearrangements in the sensory RcsF/OMP complex mediate signal transduction across the bacterial cell envelope” (PLOS Genetics, 2023):

Target: T1, OmpA ( (endogenous in the host …, UniProt P0A910 22-346))
T1 construct: OmpA, outer membrane protein; source: endogenous, in cells / DDM-solubilized membrane fraction
T1 sequence (looked up): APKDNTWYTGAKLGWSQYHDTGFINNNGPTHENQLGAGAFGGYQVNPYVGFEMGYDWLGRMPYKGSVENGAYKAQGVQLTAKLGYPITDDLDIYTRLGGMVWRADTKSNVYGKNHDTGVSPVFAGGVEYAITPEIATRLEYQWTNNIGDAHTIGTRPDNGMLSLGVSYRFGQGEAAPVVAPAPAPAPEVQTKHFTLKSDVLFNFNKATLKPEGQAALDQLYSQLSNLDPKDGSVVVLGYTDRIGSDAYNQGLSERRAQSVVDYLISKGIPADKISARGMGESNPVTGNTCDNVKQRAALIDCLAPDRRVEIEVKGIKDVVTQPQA
Experiment: cross-linking; in vivo formaldehyde crosslinking; OM version of RcsF variants with endogenous OmpA (and BamA); immunoblot of whole cell lysates probed with α-RcsF, RcsF/OmpA band quantified relative to the WT
Details: partners not purified

percent decrease of RcsF/OmpA complex relative to WT: 50%
B1: RcsF(A55V), OM version (natural protein, UniProt P69411 16-134, looked up)
chain: CSMLSRSPVEPVQSTAPQPKAEPAKPKAPRATPVRIYTNVEELVGKPFRDLGEVSGDSCQASNQDSPPSIPTARKRMQINASKMKANAVLLHSCEVTSGTPGCYRQAVCIGSALNITAK
modifications: lipidated N-terminal cysteine (residue 16)
notes: RcsF, sensory outer membrane lipoprotein; mature RcsF = residues 16-134 (NTD 16-48, CTD 49-134); also called GOF[OM] variant; source: expressed from the low copy number vector pZS21 in a ΔrcsF strain; in cells
